# Measured values as given in the RNAGym collection of RNA variant scans (doi:10.1073/pnas.2313332121).
# Variants at the floor of the assay were thinned out.
# B1: TPR 5TU (parent)
# chain: GGAUCUUCUCGAUCUAACAAAAAAGACAAAUCUGCCACAAAGCUUGAGAGCAUCUUCGGAUGCAGAGGCGGCAGCCUUCGGUGGCGCGAUAGCGCCAACGUUCUCAACUAUGACACGCAAAACGCGUGCUCCGUUGAAUGGAGUUUAUCAUG
# Variants of: B1
# Assay: polymerase ribozyme fitness, log enrichment relative to wild type (log ratio); higher = more active; in vitro selection for triplet polymerase activity
# Method in brief: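 In triplicate, a single round of in vitro selection was run on each mutant library, PCR-built and transcribed, covering one subunit of a heterodimeric triplet polymerase ribozyme. Frozen incubation at −7 °C followed annealing with a biotinylated primer, partner subunit and triplets, and extended constructs were then gel-excised, streptavidin-captured and taken through RT-PCR. Fitness is the logarithm of genotype enrichment over wild-type enrichment, from inverse-variance-weighted replicate averages of Illumina-sequenced inputs and outputs. […] only genotypes with ≥10 input reads and ≥1 read per output were kept.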
row,Variant,polymerase ribozyme fitness (log ratio)
1,GGAUCUUCUCGAUCUAACAAAAAAGACAAAUCUGCCACAAAGCUUGAGAGCAUCUUCGGCUGCAGAGGCGGCAGCCUUCGGUGGGGCGAUAGCGCCAACGUUCUCAACUAUGACACGCAAAACGCGUGCUCCGUUGAAUGGAGUUUAUCAUG [A60C C85G],-3.9
2,GGAUCUUCUCGAUCUAACAAAAAAGACAAAUCUGCCACAAAGCUUGAGAGCAUCUUCGGCUGCAGAGGCGGCAGCCUUCGGUGGAGCGAUAGCGCCAACGUUCUCAACUAUGACACGCAAAACGCGUGCUCCGUUGAAUGGAGUUUAUCAUG [A60C C85A],-2.62
3,GGAUCUUCUCGAUCUAACAAAAAAGACAAAUCUGCCACAAAGCUUGAGAGCAUCUUCGUAUGCAGAGGCGGCAGCGUUCGGUGGCGCGAUAGCGCCAACGUUCUCAACUUUGACACGCAAAACCCGUGCUCCGUUGGAUGGAGUUUAUCAUG [G59U C76G A110U G124C A137G],≤ -4.2
4,GGAUCUUCUCGAUCUAACAAAAAAGACAAAUCUGCCACAAAGCUUGAGAGCAUCUUCGGCUGCAGAGGCGGCAGCCUUCGGUAGUGCGAUAGCGCCAACGGUCUCAACUAUGACACGCAAAACGCGUGCUCCGUUGAAUGGAGUUUAUCAUG [A60C G83A C85U U101G],-3.16
5,GGAUCUUCUCGAUCUAACAAAAAAGACAAAUCUGCCACAAAGCUUGAGAGCAUCUUCGUAUGCAGAGGCGGCAGCCUUCGGUGGCACGAUAGCGCCAACGUUCUCAACUAUGACACGCAAAACGCGUGCUCCGUUGAAUGGAUUUUAUCAUG [G59U G86A G143U],-3.52
6,GGAUCUUCUCGAUCUAACAAAAAAGACAAAUCUGCCACAAAGCUUGAGAGCAUCUUCGUAUGCAGAGGCGGCAGCCUUCGGUGGCGCGAUAGCGUCAACGUUCUCAACUAUGACACGCAAAACGCGUGCUCCUUUGAAUGGAGUUUAUCAUG [G59U C95U G133U],≤ -4.2
7,GGAUCUUCUCGAUCUAACAAAAAAGACAAAUCUGCCACAAAGCUUGAGAGCAUCUUCGUAUGCAGAGGCGGCAGCCUUCGGUGGCGCGAUAGCGCCAACGUUCUCAACUAUGACACGCAAAACGCGUGCUCAGUUGAAUGGAGUUUAUCAUG [G59U C132A],-2.09
8,GGAUCUUCUCGAUCUAACAAAAAAGACAAAUCUGCCACAAAGCUUGAGAGCAUCUUCGGCUGCAGAGGCGGCAGCCUUCGGUAGCGCGAUAGCGCCAACGUUCUCAAGUAUGACACGCAAAACGCGUGCUCCGUUGAAUGGAGUUUAUCAUG [A60C G83A C108G],≤ -4.2
9,GGAUCUUCUCGAUCUAACAAAAAAGACAAAUCUGCCACAAAGCUUGAGAGCAUCUUCGUAUGCAGAGGCGGCAGCCUUCGGUGGCGCGAUAGCGCCAACGUUCUCAACUAUGACACGCAAAACGCGUGGUCCGUUGAAUGGAGUUUAUCAUG [G59U C129G],-2.56
10,GGAUCUUCUCGAUCUAACAAAAAAGACAAAUCUGCCACAAAGCUUGAGAGCAUCUUCGUAUGCAGAGGCGGCGGCCUUCGGUGGCAUGAUAGCGCCAACGUUCUCAACUAUGACACGCAAAACGCGUGCUCCGUUGAUUGGAGUUUAUCGUG [G59U A73G G86A C87U A138U A150G],≤ -4.2
11,GGAUCUUCUCGAUCUAACAAAAAAGACAAAUCUGCCACAAAGCUUGAGAGCAUCUUCGUAUGCAGAGGCGGCAGCCUUCAGUGGAGCGAUAGCGCCAACGUUCUCAACUAUGACACGCAAAACGCGUGCUCCGUUGAAUGGAGUUUAUCAUG [G59U G80A C85A],-0.927
12,GGAUCUUCUCGAUCUAACAAAAAAGACAAAUCUGCCACAAAGCUUGAGAGCAUCUUCGUAUGCAGAGGCGGCAGCCUUCGGUGGCGCGAUAGCGCGAACGUUCUCAACUAUGACACGCAAAACGCGUGCUCCCUUGCAUGGAGUUUAUCAUG [G59U C96G G133C A137C],≤ -4.2
13,GGAUCUUCUCGAUCUAACAAAAAAGACAAAUCUGCCACAAAGCUUGAGAGCAUCUUCGUAUGCACAGGCGGCAGCCUUCGGUGGCGCGAUAGCGCCAACGUUCUCAACGAUGACACGCAAAACGCGUGCUCCGUUGAAUGGAGUUUAUCAUG [G59U G65C U109G],≤ -4.2
14,GGAUCUUCUCGAUCUAACAAAAAAGACAAAUCUGCCACAAAGCUUGAGAGCAUCUUCGUAUGCAGAGGCGGCAGCCUUCGGUGACGCGAUAGCGCCAACGUUCCCAACUAUGACACGCAAAACGCGUGCUCCGUUGAAUGGAGUUUAUCAUG [G59U G84A U104C],-0.647
15,GGAUCUUCUCGAUCUAACAAAAAAGACAAAUCUGCCACAAAGCUUGAGAGCAUCUUCGUAUGCAGAGGCGGCAGCCUUCGGUGGCGCGAUAGCGCCAACGUUCUCAACUAUGAUACGCAAAACGCGUGCUCCGUUGAAUGGAGUUUAUCAUG [G59U C114U],-1.62
16,GGAUCUUCUCGAUCUAACAAAAAAGACAAAUCUGCCACAAAGCUUGAGAGCAUCUUCGUAUGCAGAGGCGGCAGCCUUCGGUGGCGCGAUAGCGAGAACGUUCUCAACUAUGACACGCUAAAUGCGUGCUCCGUUGAAUGGAGUUUAUUAUG [G59U C95A C96G A119U C123U C149U],-3.57
17,GGAUCUUCUCGAUCUAACAAAAAAGACAAAUCUGCCACAAAGCUUGAGAGCAUCUUCGUAUGCAGAGGGGGCAGCCUUCGGUGGCGCGAUAGCGUCAACGUUCUCAACUAUGACAGGCAAAACGCGUGCUCCGUUGAAUGGAGUUUAUCAUG [G59U C69G C95U C116G],-1.81
18,GGAUCUUCUCGAUCUAACAAAAAAGACAAAUCUGCCACAAAGCUUGAGAGCAUCUUCGUAUGCAGAGGCGGCAGCCUUCGGUGGCGCGAUAGCCCCAAAGUUCUCAACUAUGACACGCAAAACGCGUCUCCCGUUGAAUUGAGUUUAUCAUG [G59U G94C C99A G128C C129U U130C G140U],≤ -4.2
19,GGAUCUUCUCGAUCUAACAAAAAAGACAAAUCUGCCACAAAGCUUGAGAGCAUCUUCGGCUGCAGAUGCGGCAGCAUUCGGUGGCGCGAUAGCGCUAACGUUCUCAGCUAUGACACGCAAAACGUGUGCUCCGUUGAAUGGAGUUUAUCAUG [A60C G67U C76A C96U A107G C125U],≤ -4.2
